This is an account of results in article PMC6420636, “The deubiquitylating enzyme USP15 regulates homologous recombination repair and cancer cell response to PARP inhibitors” (Nature Communications, 2019).

The assay deals with T1, FLAG-BARD1-BRCT, deubiquitinated by His-USP15 in vitro (UniProt Q99728 568-777).
T1 construct: BARD1 C-terminal BRCT domain; also called deubiquitinated BARD1-BRCT domain
T1 sequence (looked up): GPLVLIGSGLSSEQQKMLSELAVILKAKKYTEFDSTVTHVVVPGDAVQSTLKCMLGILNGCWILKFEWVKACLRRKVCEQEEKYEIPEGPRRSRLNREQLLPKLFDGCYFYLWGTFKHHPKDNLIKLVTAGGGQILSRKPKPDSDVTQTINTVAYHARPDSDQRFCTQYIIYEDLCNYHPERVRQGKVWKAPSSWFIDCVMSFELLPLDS
The assay is described as follows: pull-down; in vitro binding assay: BARD1-BRCT purified by tandem IP and left on FLAG beads, untreated or deubiquitinated by His-USP15, incubated with GST or GST-HP1γ. The following applies: both partners purified.

B1: GST-HP1γ (natural protein)
chain: not shown
notes: HP1γ; plasmid a gift from Naoko Tanese; source: E. coli BL21, purified (glutathione Sepharose 4B)
As for B1, the binding result is “binds”.
